From article doi:10.1101/558098 come the findings set out here.

Holding throughout (assay): EMSA
(In EMSA bound probe runs differently from free probe, usually more slowly.)

The target in data set [1] is IMP1_KH1-4mut (human, UniProt Q9NZI8 1-577, K213E;E214L;K294E;E295L;K423E;K424L;K505E;G506L).
Data set [2] has as its target T1, YBX1 (human, UniProt P67809 1-324).
Data set [3] addresses T2, IMP1 (human, UniProt Q9NZI8 1-577).
For data set [4], the target named is T1, YBX1. The source holds these as a separate data set.
Data set [5] addresses T2, IMP1. This is another data set of the same source.
In data set [6] the target is T1, YBX1. This is another data set of the same source.
The target in data set [7] is T2, IMP1. This is another data set of the same source.
Data set [8] addresses T1, YBX1. The source holds these as a separate data set.
Data set [9] deals with T2, IMP1. The source holds these as a separate data set.

Read-outs that look alike come from different tables or passages of the source.

T2 sequence (Q9NZI8 whole entry): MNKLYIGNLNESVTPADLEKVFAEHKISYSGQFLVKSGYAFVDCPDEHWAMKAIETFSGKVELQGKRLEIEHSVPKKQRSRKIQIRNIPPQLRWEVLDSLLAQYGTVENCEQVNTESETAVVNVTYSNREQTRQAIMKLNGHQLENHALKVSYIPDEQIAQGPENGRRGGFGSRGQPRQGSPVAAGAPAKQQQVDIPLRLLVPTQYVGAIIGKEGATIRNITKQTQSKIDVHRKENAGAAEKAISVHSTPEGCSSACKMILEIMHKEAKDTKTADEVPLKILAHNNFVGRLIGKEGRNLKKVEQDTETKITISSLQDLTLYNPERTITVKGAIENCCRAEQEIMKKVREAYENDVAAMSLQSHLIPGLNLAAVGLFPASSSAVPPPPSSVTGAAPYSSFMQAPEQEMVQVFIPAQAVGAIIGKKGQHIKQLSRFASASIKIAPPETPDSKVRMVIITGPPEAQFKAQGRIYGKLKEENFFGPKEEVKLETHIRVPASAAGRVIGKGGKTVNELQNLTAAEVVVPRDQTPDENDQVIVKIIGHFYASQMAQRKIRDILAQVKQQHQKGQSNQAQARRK
T1 sequence (P67809 whole entry): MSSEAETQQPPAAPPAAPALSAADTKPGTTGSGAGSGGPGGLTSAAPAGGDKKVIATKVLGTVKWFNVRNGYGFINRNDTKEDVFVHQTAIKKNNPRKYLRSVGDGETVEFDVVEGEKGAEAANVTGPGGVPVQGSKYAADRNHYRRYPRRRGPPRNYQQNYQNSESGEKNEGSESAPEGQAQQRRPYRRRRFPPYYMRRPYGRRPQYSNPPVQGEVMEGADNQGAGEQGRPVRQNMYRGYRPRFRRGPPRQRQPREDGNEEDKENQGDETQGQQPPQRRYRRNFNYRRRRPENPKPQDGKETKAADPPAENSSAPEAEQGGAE
IMP1_KH1-4mut, sequence (Q9NZI8 whole entry K213E/E214L/K294E/E295L/K423E/K424L/K505E/G506L): as the sequence (Q9NZI8 whole entry) above, with K213E, E214L, K294E, E295L, K423E, K424L, K505E, G506L counted along it

B1: C-MYC CRD (ssRNA)
RNA: GGACCAGAUCCCGGAGUUGGAAAACAAUGAAAAGGCCCCCAAGGUAGUUAUCCUUAAAAAAGCCACAGCAUACAUCCUGUCCGUCCAAGCAGAGGAGCAAAAGCUCAUUUCUGAAGAGGACUUGUUGCGGAAACGACGAGAACAGUUGAAACACAAACUUGAACAGCUACGGAACUCUUGUGCG
With B1, the binding signal in [1] is ~10 fold reduction vs wild-type IMP1. Also, the binding result in data set [2] and in data set [3] was “binds” each time.

B2: ACTB exon 5 (ssRNA)
RNA: not shown
In the case of B2, the binding result is “binds” in [4] and “no binding” in [5].

B3: C-MYC 3'UTR (ssRNA)
RNA: GGAAAAGUAAGGAAAACGAUUCCUUCUAACAGAAAUGUCCUGAGCAAUCACCUAUGAACUUGUUUCAAAUGCAUGAUCAAAUGCAACCUCACAACCUUGGCUGAGUCUUGAGACUGAAAGAUUUAGCCAUAAUGUAAACUGCCUCAAAUUGGACUUUGGGCAUAAAAGAACUUUUUUAUGCUUACCAUCUUUUUUUUUUCUUUAACAGAUUUGUAUUUAAGAAUUG
B3: the binding result in data set [6] and in [7] was “binds” in each case.

B4: ACTB 3'UTR (ssRNA)
RNA: GGCGGACUAUGACUUAGUUGCGUUACACCCUUUCUUGACAAAACCUAACUUGCGCAGAAAACAAGAUGAGAUUGGCAUGGCUUUAUUUGUUUUUUUUGUUUUGUUUUGGUUUUUUUUUUUUUUUUGGCUUGACUCAGGAUUUAAAAACUGGAACGGUGAAGGUGACAGCAGUCGGUUGGAGCGAGCAUCCCCCAAAGUUCACAAUGUGGCCGAGGACUUUGAUUGCACAUUGUU
For the molecule B4, the binding result in data set [8] and in [9] was “binds” in each case.
